According to a protein production outcome set (Wang et al. 2014):

Assay: label from the status in PepcDB records
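Also: failed if final PepcDB status was selected cloned or expressed and not failed if soluble or beyond.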

Row | Sequence | protein production
1 | LHDTDQQGMFERGSAIVEPRFRSLLQQIGSMLGEIDNRLLVVGHTDAAQYHRAGGFAAMSNWSLSSNRAMAARLHMMQGGLAADSVLQVVGMAERAPLDKQHPLGAVNRRIELLVLTSGQAQA | failed
2 | MKVIKSNKVTNKFKVSILISTYNKEKFIENTLNNILAQTMNKNDFELIIVDDCSTDNTLDIISKKIESFSNYQFVQLDENSGTPAKPRNLSIDLSKGKYIMFVDGDDWLPSDALENLYTLLKSNKTDYATGLTKYVYSDRIARSGVALSKIAYNKIGLKNFRKSFYHLAPAGRMMKSSVIKKNNIRFPEMIFGEDLQFFAEVFFNTKNISTTQDVVYCANRYDENISLVKSEASTVLNRIKWQNEAYRYLTKKYKNNKIFANLLYRIINKDILEGKFYKKGFIKEIDTLLPVFQDILNTIDNDFNSLDYADDTLNQHALTLIKNGDKEEIIDFVNFYLKKDEKPLYLSNDKYYYVYKENKYKKRMHIILQKIIKKDENIFLKLYSKNSELKYLEIKNRKDPTNYTVLEIKKHLFKTGEYTVQFKANELSKGKLALTVLDKDLNGAAIKSGMQFDFYETVNGNLGYIKKLEHHHHHH | not failed
3 | RTNRLSAVQSNKMIVRAMERGVSAERLGKALGLSPQTIRQRFRLLNGICAEVVALLGDTDCPANVFNLLRQMKPLRQIEAAELMIGNKNLSVLLAKALLAATPPDQLVMIKKPSQDHQVSAESMARLERELAALQMQIKTVEEDYGPDVLHLTVIKGYLTKLLANAAVVRWLARHQPEYLKEFQSIAELTELPWADNGPEDDLQSTTAEG | not failed
4 | MEGESVKLSSQTLIQAGDDEKNQRTITVNPAHMGKAFKVMNELRSKQLLCDVMIVAEDVEIEAHRVVLAACSPYFCAMFTGDMSESKAKKIEIKDVDGQTLSKLIDYIYTAEIEVTEENVQVLLPAASLLQLMDVRQNCCDFLQSQLHPTNCLGIRAFADVHTCTDLLQQANAYAEQHFPEVMLGEEFLSLSLDQVCSLISSDKLTVSSEEKVFEAVISWINYEKETRLEHMAKLMEHVRLPLLPRDYLVQTVEEEALIKNNNTCKDFLIEAMKYHLLPLDQRLLIKNPRTKPRTPVSLPK | not failed
5 | PGLRELCIQKAPGERLGISIRGGARGHAGNPRDPTDEGIFISKVSPTGAAGRDGRLRVGLRLLEVNQQSLLGLTHGEAVQLLRSVGDTLTVLVCDGFE | not failed
6 | MYREFYGLTEKPFSKTPDPRYLFLSRGHREALARLQYAVEERELALLTGDIGCGKTTISRALMDAVGNDGCFCFIVNPRLSAVEFLRTVARSLGIAEPAAAKDELLRQLTEAVYRLEGEKRCPVIIIDEAQLIPDQEVFDEIRLLTNFQLDDRNLMSVILMGQPELRQILSEPAHEALRQRIAMHYHLQPLSLEETLEYVDFRVEVAGGPQGLFSPDAIRRIYELSGGVPRKINILATNALLVGFGKDSAWIDASLVEELRDEASLYLEHHHHHH | failed
7 | MIRPEYLRVLRKIYDRLKNEKVNWVVTGSLSFALQGVPVEVHDIDIQTDEEGAYEIERIFSEFVSKKVRFSSTEKICSHFGELIIDGIKVEIMGDIRKRLEDGTWEDPVDLNKYKRFVETHGMKIPVLSLEYEYQAYLKLGRVEKAETLRKWLNERKG | not failed
8 | MKFLKYFTFELRLRYRNPSQILFVFIFPLFLMFAFSSSFGKSIPHYIENNIASILLYSVLSASLTSLSVQIADHQSGKIYQLFVQRGIKKLFYIIAQIVSFMIIIFCSTLVILVVAHYAYDYEFPKLSLLILFYLKLYLYSIPFCLLAMIIGLLAKNTATASAIAMPLMFLSFFFSGMMIPLAQLSGGIRKIADNFFLTQLLSDLNHTLTSNYTVVPNWSRISLSVGLICLLALLVYRRKA | failed
9 | TSKQRYSGKVHLCVARYSYNPFDGPNENPEAELPLTAGKYLYVYGDMDEDGFYEGELLDGQRGLVPSNFVDFVQDNESRLAST | not failed
10 | AQNFSDYFTNKTLRIDYLFTGNADKQSICLDELSELPVWAGRRHHLSELPLEGNGQIVMRDVASGKVIYTTSFSSLFQEWLETDEAKEVTKGFENTYLLPYPIKPAEVEITLRNNKREVSANLKHVVKPDDILIHKKGLTHITPHKYLLKSGNEEQCIDVAILAEGYTTSEMETFYKDAAIACEALFSHEPFQSMKNRFNIVAVASPSADSGVSAPKQGAWKHTAFGSHFDTFYSDRYLTTSRVKAINDALAGIPYEHIIILANTEQYGGGGIYNAFTLTTAHHPNFRPVVVHEFGHSFGGLADEYFYDEDVMNGLYPLNIEPWEQNITTRINFASKWEDMLTKTTPVPTPVADKAKYPIGVYEGGGYSAKGIYRPAFDCRMRTNEYPTFCPVCQRAIQRIIEFYTGK | not failed
11 | MEVMRGVRVIEGMNGGRFPYCNVVVVGDVVIDAGAGLEVMRKVNASLLVLSHLHPDHSSGAWLFKDVLAPAEGRITLDTLARRFVAPDLVESWKRFISAATGLREFECERYEEGVVVKEPEIVAVPVKGHTMDHHVFLIEQKVLFGADVDLTSFGPFYGNPEADPYLFEREMDKLLDIDFEIFVSAHSKPLEHHHHHH | failed
12 | MTTDNPLISIYMPTWNRQQLAIRAIKSVLRQDYRHWEMIIVDDCSSSYQQLQQFVEELNDPRVRYTHNARNTGACAVRNQAIMQAQGHYITGIDDDDEWTPNRLSVFLAHKHQLTTHAFLYANDYVCEGEVYSQPASLPLYPKSPYSRRLFYKRNIIGNQVFTWAWRFKASLFDTELKAAQDYDIFLRMVVEYGEPWKVEEATQILHINHGEMQITSSPKKFSGYFHFYRKHKDKFDRASKKYQLFTLYQIRNKRMTWRTLLTLLSVRNSKRLAAGLRGR | failed
13 | MAYDIERYLDIRGAGDPTYGPTGELAFTLGTTGTAQVWALGAPGAWPTQLTFHDERVQWASFSPTREELAYGMDTGGDEFTQLHRVSGDGSEDVQLTAFPDAKHDWGGWSHDGDRIAYTANRRDASRFDVYVQGRDEAGANADCVRVGDTFDLPSVVGWSPSDDRLLVVDTHSNFDQDVAVLDVDTGEITRATAGLDADTRFSWVAWAPDGGGVYVTTDHDADTRYLGLLDPETGAISRVADGGDWPIEAVVTAHDAGRLAYVRNRDGYSELTIADAAGTTLTEQPTPELPDGVIRGLSWGPDGDTLAVVVSAATENPNVFVVDVATGAATQWTNAATAGIPKSTFREPELVRYETFDGREIPALFTRPDGDGPHPVIVDFHGGPEGQRRPSFLSLRQYFVDNGYAVFEPNVRGSSGYGATYMNLDNVRNRMDAVADGKAGVEWLTARTDIDADRVVAYGGSYGGFMVLASLTEYPELWAAGVDIVGIANFVTFLENTGDWRREHRESEYGSLDADREFLESISPTNNADRIRAPLLVLHGANDPRVPVGEAERIVEQASAHVPVEKHVFDDEGHGFSKRANKQAAYRAVVDFLDDHALEHHHHHH | failed
14 | ASVVLDFLTSDDFPAVAELGAAIWHKHFIGMISREQIDYMVSSRYTPQRLGRYLDAPDRWFRLLRVDGRPVGYCSYALTGQPGEMKLEQLYLLEEMRGWGLGGRMMDEAEAAARALGCATLMLTVNRHNAGAIAVYQKRGFAVREEVVADIGNGFVMDDYMMEKLLSR | failed
15 | MYIKKIVIGLLFVTLVGCSSSPDTEETKEKILIKTNNYSDLIIFYKNQLKVSEDPYTREKLAQAYLDSGDPDSALFAIQYLNEDDDSRSISSFLIEANAQLECGMLEPALDTVNRVYKLNEDNPEIENLLGVIYASKRDLDKSRHYFNLARKHLYSDITIKNNLAILNIIEGKYDQAVKLLLPIYMSNKNDALVQANLMLAMAKAGDLEFMEKVLSPQFSKQEIERRYSILKNTESHRDDTNLFGAD | failed
16 | MSLRILIVDDEKLTRDGLIANINWKALSFDQIDQADDGINAIQIALKHPPNVLLTDVRMPRMDGIELVDNILKLYPDCSVIFMSGYSDKEYLKAAIKFRAIRYVEKPIDPSEIMDALKQSIQTVLQHQAQQDSEGHHHHHH | not failed
17 | MSEMAGDSSTSEDKIHKPNRERNVSGELDVFEATRYFSDFNEPTTIEYSRIQIQKQSIVTENRQKRVHPETEEHLPKPRVVVIKPQKKEMTRGGGKKLTSFLNSLLRSAGLKKKSKSAPEVETPRVERMRRKSCVVTTHAADASPLTNAGAWSLNARRRSFDEKDLKKSDQKLNIRFCESLYSDQRVETKDPNAGDKNDVIGGCESDSSSESDLFELDLFAKSNP | failed
18 | MTPNEDLIEIFEDEEISPSLTAKTWPILIVDDDQDVHDVSRLALRGVRLLDYDLETLHAYSAAQARAILSSRSDIAVALLDVVMEREDAGLDLVRWIRSDPARDLLRIVLRTGQPGYAPEATVIQDYDINDYRTKSELNRGRLISILTTALRSYRQMAVIAASRDGLDKIVRASADLLASPSMAIFAEGVLTQLAGLLGTERSGIVLARRNRRPGATASMAMTGDEGFVLAAAGPLSADIGRPLSDIGDHQTAEILRRTLESRRSSFDHGSMALYIATPNGDSLAVLMEVAKTLGDTDRKLVEVFCVNMAAGFDTISLFEQISLQAFHDEATGLPNLAACQSLIDQYLQRRQPVAVTFFSLEGFSAISDTLGRVIGDRMIGLLANAFRHRLQERGEVFRVGQETLATVIGGPVDQVGPLADQLAGDFRAGLPLDSMTLPVSFSHGTSVSTSEHDTAQILVQRAGIAMQKARNIKRGGGLTYAVAMEEEIRAHIGVISKLGAGVVSEAFVAVFQPKIRLADRSCHGGEALVRWRDGDGTMIAPSLFIPAAETSGHIVDIGYSVFRQSCAMIRSLKVSQDDARIAVNLSVRQMREPDLIDKLVSIAAEEGVATTRLKLEITESIVIDDLTHTVSLLKALKDKGFLLALDDFGTGYSSLSYLRSLPIDTLKIDRSFVSGLAEQADMRKIVGLIIGLGHELGFDITAEGVETEEEARIVTEMGCFTAQGYLFSKPLSAEDFLVFARTHAGARQTSGGSLSAEGCIRARDA | failed
19 | MDVTWTVKYITEFVGTALLIIMGNGAVANVELKGTKAHAQSWMIIGWGYGLGVMLPAVAFGNITSQINPAFTLGLAASGLFPWAHVAQYIIAQVLGAMFGQLLIVMVYRPYYLKTQNPNAILGTFSTIDNVDDNDKKTRLGATINGFLNEFVGSFVLFFGAVAATNIFFGSQSITWMTNYLKGQGADVSSSDIMNQIWVQASGASASKMVAHLFLGFLVMGLVVALGGPTGPGLNPARDFGPRLVHSLLPKSVLGEAKGSSKWWYAWVPVLAPILASLAAVALFKMIYL | failed
20 | MNFVTLTSDEFNAFTTKHFSHYTQSAIHYNHRVDLKGDVHLVGVKDDNGQVIAGCLLTEARTLKFFKYFYTHRGPVMDYTNQSLVAFFFKALTSYLKKHNCLYVLVDPYLIENLRNADGEIVKSYDNRAFVRTMDKLGYKHQGFPVGYDSMSQIRWLSVLDLKDKTEDQLLKEMDYQTRRNIKKTYDIGVKTKTLTIDETQTFFDLFHMAEEKHGFKFRELPYFEEMQKLYDDHAMLKLAYIDLNEYLKTLQLKQQQLTAELSGVEEALEESPNSKKNKTKRTQLEQQLNSNKRKIDNTIEQIEQDGAVLNLASALFIYNEHEVYYLSSGSNPKYNAYMGAYHLQWEMIKFAKAHHIDRYNFYGITGDFSESSEDYGVQQFKKGFNAHVEEYIGDFIKPIKPLLYKVQTYLNHKRR | failed
21 | MENSLRSTLLDIVKGCIATVALFIAYLELPVIGMLAGVVVPLPALLYDLKRGKWSGLAIVLASALIFMLIAGPAGALLYVLQAGIFSLALPRFLTMGGGPARALASAVAVTVAVITAAAVGYGVTRGVTVEGQVAESLQSSITQAIQLYEKSGVSGADLDELREGMEQAAKSLAQLYPSLFVVGIAMAGGLNLLLLQRFGRRLGLAVPGGSFGKYRNPDHLVWLPICAGFALLAGHDAVTTIALNVLVLTGFLYFIQGMAIIIHLFDRYAAPAFLRYLLYFLLFVQAYLVVAVALFGLLDLWGNFRRPRIPTNL | failed
22 | SDESGMRTYVRTLSFILSKAVADILPGSKLFIEHSLSNGYYCQIKNAHMITPGEIVRIKERMESLIVADIPFRAHCERTEEVAAMFRSMGYEDKADLLETKGMP | failed
